Among the data in US20200352996A1 are cytotoxicity to TNBC cells (CytoTox Homogenous Assay, E:T ratio of 10:1) values, retold here.

This assay concerns the target Tissue factor (TF) on human TNBC line MDA-MB-231 cells (human) (UniProt P13726). Description: cell-based or functional assay.
UniProt P13726, sequence (P13726 33-295): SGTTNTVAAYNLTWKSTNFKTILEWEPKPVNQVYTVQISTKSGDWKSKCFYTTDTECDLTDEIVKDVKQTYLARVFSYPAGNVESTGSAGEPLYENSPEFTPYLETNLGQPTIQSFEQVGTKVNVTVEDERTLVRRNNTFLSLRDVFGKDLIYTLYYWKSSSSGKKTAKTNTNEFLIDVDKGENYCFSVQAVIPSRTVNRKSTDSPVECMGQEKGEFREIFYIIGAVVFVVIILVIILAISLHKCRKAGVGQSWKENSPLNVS

As to “TF-targeting CAR1 monomer (hfVIIL-CD28-4-1BB-CD3zeta), expressed on NK92MI/fCD16 cells (from UniProt P10747 153-220; Q07011 214-255; P20963 52-164)”, the cytotoxicity to TNBC cells (CytoTox Homogenous Assay, E:T ratio of 10:1) is 77%.
